Assay results taken from patent US20230407373A1 (priority 2020, published 2023).
Like-named read-outs stand apart in the source and are kept apart here.

How the values were obtained:
HCoV-OC43 gRNA and sgRNA = format: binding; settings: for target (unweighted spectral count, OC43 Probe II capture): tested against no-probe control, FDR<10%; for target (unweighted spectral count, OC43 Probe II) / background (unweighted spectral count, no-probe control): type n_48_v, 48 hpi; for target (unweighted spectral count, OC43 Probe II): OC43 Probe II capture on infected cells; for background (unweighted spectral count, no-probe control): no-probe control on infected cells; for target (spectral count) / background (spectral count): type s_36_m, Probe II; for target (spectral count): HCoV-OC43-infected HCT-8 cells; for background (spectral count): uninfected-probe control
gRNA of HCoV-OC43 = format: binding; settings: type n_48_v: 48 hours post-infection; for target (spectral count, OC43 Probe I RNP capture): infected cells, unweighted spectral count; for background (spectral count, no-probe control): no-probe control on infected cells

Molecule	target (unweighted spectral count, OC43 Probe II capture) (HCoV-OC43 gRNA and sgRNA; 24 hpi, type n_24_v)	target (unweighted spectral count, OC43 Probe II capture) (HCoV-OC43 gRNA and sgRNA; 36 hpi, type n_36_v)	target (unweighted spectral count, OC43 Probe II) (HCoV-OC43 gRNA and sgRNA)	background (unweighted spectral count, no-probe control) (HCoV-OC43 gRNA and sgRNA)	target (spectral count, OC43 Probe I RNP capture) (gRNA of HCoV-OC43)	background (spectral count, no-probe control) (gRNA of HCoV-OC43)	target (spectral count) (HCoV-OC43 gRNA and sgRNA; 36 hpi)	background (spectral count) (HCoV-OC43 gRNA and sgRNA; 36 hpi)
ESRP2 (protein, UniProt Q9H6T0 1-727, looked up) Epithelial splicing …: MTPPPPPPPPPGPDPAADPAADPCPWPGSLVVLFGATAGALGRDLGSDETDLILLVWQVVEPRSRQVGTLHKSLVRAEAAALSTQCREASGLSADSLARAEPLDKVLQQFSQLVNGDVALLGGGPYMLCTDGQQLLRQVLHPEASRKNLVLPDMFFSFYDLRREFHMQHPSTCPARDLTVATMAQGLGLETDATEDDFGVWEVKTMVAVILHLLKEPSSQLFSKPEVIKQKYETGPCSDSTVPCPYSSKADVVDSETVVRARGLPWQSSDQDVARFFKGLNVARGGVALCLNAQGRRNGEALIRFVDSEQRDLALQRHKHHMGVRYIEVYKATGEEFVKIAGGTSLEVARFLSREDQVILRLRGLPFSAGPTDVLGFLGPECPVTGGTEGLLFVRHPDGRPTGDAFALFACEELAQAALRRHKGMLGKRYIELFRSTAAEVQQVLNRYASGPLLPTLTAPLLPIPFPLAPGTGRDCVRLRGLPYTATIEDILSFLGEAAADIRPHGVHMVLNQQGRPSGDAFIQMTSAERALAAAQRCHKKVMKERYVEVVPCSTEEMSRVLMGGTLGRSGMSPPPCKLPCLSPPTYTTFQATPTLIPTETAALYPSSALLPAARVPAAPTPVAYYPGPATQLYLNYTAYYPSPPVSPTTVGYLTTPTAALASAPTSVLSQSGALVRMQGVPYTAGMKDLLSVFQAYQLPADDYTSLMPVGDPPRTVLQAPKEWVCL	5	6	8	1	6	1	–	–
POP1: host protein, UniProt Q99575 (protein, UniProt Q99575 1-1024, looked up) Ribonucleases P/MRP protein …: MSNAKERKHAKKMRNQPTNVTLSSGFVADRGVKHHSGGEKPFQAQKQEPHPGTSRQRQTRVNPHSLPDPEVNEQSSSKGMFRKKGGWKAGPEGTSQEIPKYITASTFAQARAAEISAMLKAVTQKSSNSLVFQTLPRHMRRRAMSHNVKRLPRRLQEIAQKEAEKAVHQKKEHSKNKCHKARRCHMNRTLEFNRRQKKNIWLETHIWHAKRFHMVKKWGYCLGERPTVKSHRACYRAMTNRCLLQDLSYYCCLELKGKEEEILKALSGMCNIDTGLTFAAVHCLSGKRQGSLVLYRVNKYPREMLGPVTFIWKSQRTPGDPSESRQLWIWLHPTLKQDILEEIKAACQCVEPIKSAVCIADPLPTPSQEKSQTELPDEKIGKKRKRKDDGENAKPIKKIIGDGTRDPCLPYSWISPTTGIIISDLTMEMNRFRLIGPLSHSILTEAIKAASVHTVGEDTEETPHRWWIETCKKPDSVSLHCRQEAIFELLGGITSPAEIPAGTILGLTVGDPRINLPQKKSKALPNPEKCQDNEKVRQLLLEGVPVECTHSFIWNQDICKSVTENKISDQDLNRMRSELLVPGSQLILGPHESKIPILLIQQPGKVTGEDRLGWGSGWDVLLPKGWGMAFWIPFIYRGVRVGGLKESAVHSQYKRSPNVPGDFPDCPAGMLFAEEQAKNLLEKYKRRPPAKRPNYVKLGTLAPFCCPWEQLTQDWESRVQAYEEPSVASSPNGKESDLRRSEVPCAPMPKKTHQPSDEVGTSIEHPREAEEVMDAGCQESAGPERITDQEASENHVAATGSHLCVLRSRKLLKQLSAWCGPSSEDSRGGRRAPGRGQQGLTREACLSILGHFPRALVWVSLSLLSKGSPEPHTMICVPAKEDFLQLHEDWHYCGPQESKHSDPFRSKILKQKEKKKREKRQKPGRASSDGPAGEEPVAGQEALTLGLWSGPLPRVTLHCSRTLLGFVTQGDFSMAVGCGEALGFVSLTGLLDMLSSQPAAQRGLVLLRPPASLQYRFARIAIEV	–	8	7	1	6	1	8	1
RBM4 (protein, UniProt Q9BWF3 1-364, looked up) RNA-binding protein 4: MVKLFIGNLPREATEQEIRSLFEQYGKVLECDIIKNYGFVHIEDKTAAEDAIRNLHHYKLHGVNINVEASKNKSKTSTKLHVGNISPTCTNKELRAKFEEYGPVIECDIVKDYAFVHMERAEDAVEAIRGLDNTEFQGKRMHVQLSTSRLRTAPGMGDQSGCYRCGKEGHWSKECPIDRSGRVADLTEQYNEQYGAVRTPYTMSYGDSLYYNNAYGALDAYYKRCRAARSYEAVAAAAASVYNYAEQTLSQLPQVQNTAMASHLTSTSLDPYDRHLLPTSGAAATAAAAAAAAAAVTAASTSYYGRDRSPLRRATAPVPTVGEGYGYGHESELSQASAAARNSLYDMARYEREQYADRARYSAF	4	4	–	–	6	1	–	–
DKC1 (protein, UniProt O60832 2-514, looked up) H/ACA ribonucleoprotein …: ADAEVIILPKKHKKKKERKSLPEEDVAEIQHAEEFLIKPESKVAKLDTSQWPLLLKNFDKLNVRTTHYTPLACGSNPLKREIGDYIRTGFINLDKPSNPSSHEVVAWIRRILRVEKTGHSGTLDPKVTGCLIVCIERATRLVKSQQSAGKEYVGIVRLHNAIEGGTQLSRALETLTGALFQRPPLIAAVKRQLRVRTIYESKMIEYDPERRLGIFWVSCEAGTYIRTLCVHLGLLLGVGGQMQELRRVRSGVMSEKDHMVTMHDVLDAQWLYDNHKDESYLRRVVYPLEKLLTSHKRLVMKDSAVNAICYGAKIMLPGVLRYEDGIEVNQEIVVITTKGEAICMAIALMTTAVISTCDHGIVAKIKRVIMERDTYPRKWGLGPKASQKKLMIKQGLLDKHGKPTDSTPATWKQEYVDYSESAKKEVVAEVVKAPQVVAEAAKTAKRKRESESESDETPPAAPQLIKKEKKKSKKDKKAKAGLESGAEPGDGDSDTTKKKKKKKKAKEVELVSE	–	–	9	1	6	1	–	–
APOBEC3F (protein, UniProt Q8IUX4 1-373, looked up) DNA dC->dU-editing enzyme …: MKPHFRNTVERMYRDTFSYNFYNRPILSRRNTVWLCYEVKTKGPSRPRLDAKIFRGQVYSQPEHHAEMCFLSWFCGNQLPAYKCFQITWFVSWTPCPDCVAKLAEFLAEHPNVTLTISAARLYYYWERDYRRALCRLSQAGARVKIMDDEEFAYCWENFVYSEGQPFMPWYKFDDNYAFLHRTLKEILRNPMEAMYPHIFYFHFKNLRKAYGRNESWLCFTMEVVKHHSPVSWKRGVFRNQVDPETHCHAERCFLSWFCDDILSPNTNYEVTWYTSWSPCPECAGEVAEFLARHSNVNLTIFTARLYYFWDTDYQEGLRSLSQEGASVEIMGYKDFKYCWENFVYNDDEPFKPWKGLKYNFLFLDSKLQEILE	–	4	6	1	6	1	–	–
LARP7: host protein, UniProt Q4G0J3 (protein, UniProt Q4G0J3 1-582, looked up) La-related protein 7: METESGNQEKVMEEESTEKKKEVEKKKRSRVKQVLADIAKQVDFWFGDANLHKDRFLREQIEKSRDGYVDISLLVSFNKMKKLTTDGKLIARALRSSAVVELDLEGTRIRRKKPLGERPKDEDERTVYVELLPKNVNHSWIERVFGKCGNVVYISIPHYKSTGDPKGFAFVEFETKEQAAKAIEFLNNPPEEAPRKPGIFPKTVKNKPIPALRVVEEKKKKKKKKGRMKKEDNIQAKEENMDTSNTSISKMKRSRPTSEGSDIESTEPQKQCSKKKKKRDRVEASSLPEVRTGKRKRSSSEDAESLAPRSKVKKIIQKDIIKEASEASKENRDIEISTEEEKDTGDLKDSSLLKTKRKHKKKHKERHKMGEEVIPLRVLSKSEWMDLKKEYLALQKASMASLKKTISQIKSESEMETDSGVPQNTGMKNEKTANREECRTQEKVNATGPQFVSGVIVKIISTEPLPGRKQVRDTLAAISEVLYVDLLEGDTECHARFKTPEDAQAVINAYTEINKKHCWKLEILSGDHEQRYWQKILVDRQAKLNQPREKKRGTEKLITKAEKIRLAKTQQASKHIRFSEYD	–	7	9	1	6	1	7	1
